# Results from IntAct's records for PubMed 15883825.
# B1: F-box protein MET30 (Saccharomyces cerevisiae), P39014 (parent)
# chain: MRRERQRMMSFEDKDKDDLDNSNSNNSSEMTDTAMMPPLKRLLITGSSDDLAQGSSGKKKMTMATRSPSSSPDLATNDSGTRVQPLPEYNFTKFCYRHNPDIQFSPTHTACYKQDLKRTQEINANIAKLPLQEQSDIHHIISKYSNSNDKIRKLILDGILSTSCFPQLSYISSLVTHMIKIDFISILPQELSLKILSYLDCQSLCNATRVCRKWQKLADDDRVWYHMCEQHIDRKCPNCGWGLPLLHMKRARIQQNSTGSSSNADIQTQTTRPWKVIYRERFKVESNWRKGHCRIQEFKGHMDGVLTLQFNYRLLFTGSYDSTIGIWDLFTGKLIRRLSGHSDGVKTLYFDDRKLITGSLDKTIRVWNYITGECISTYRGHSDSVLSVDSYQKVIVSGSADKTVKVWHVESRTCYTLRGHTEWVNCVKLHPKSFSCFSCSDDTTIRMWDIRTNSCLKVFRGHVGQVQKIIPLTIKDVENLATDNTSDGSSPQDDPTMTDGADESDTPSNEQETVLDENIPYPTHLLSCGLDNTIKLWDVKTGKCIRTQFGHVEGVWDIAADNFRIISGSHDGSIKVWDLQSGKCMHTFNGRRLQRETQHTQTQSLGDKVAPIACVCIGDSECFSGDEFGCVKMYKFDLND
# partner: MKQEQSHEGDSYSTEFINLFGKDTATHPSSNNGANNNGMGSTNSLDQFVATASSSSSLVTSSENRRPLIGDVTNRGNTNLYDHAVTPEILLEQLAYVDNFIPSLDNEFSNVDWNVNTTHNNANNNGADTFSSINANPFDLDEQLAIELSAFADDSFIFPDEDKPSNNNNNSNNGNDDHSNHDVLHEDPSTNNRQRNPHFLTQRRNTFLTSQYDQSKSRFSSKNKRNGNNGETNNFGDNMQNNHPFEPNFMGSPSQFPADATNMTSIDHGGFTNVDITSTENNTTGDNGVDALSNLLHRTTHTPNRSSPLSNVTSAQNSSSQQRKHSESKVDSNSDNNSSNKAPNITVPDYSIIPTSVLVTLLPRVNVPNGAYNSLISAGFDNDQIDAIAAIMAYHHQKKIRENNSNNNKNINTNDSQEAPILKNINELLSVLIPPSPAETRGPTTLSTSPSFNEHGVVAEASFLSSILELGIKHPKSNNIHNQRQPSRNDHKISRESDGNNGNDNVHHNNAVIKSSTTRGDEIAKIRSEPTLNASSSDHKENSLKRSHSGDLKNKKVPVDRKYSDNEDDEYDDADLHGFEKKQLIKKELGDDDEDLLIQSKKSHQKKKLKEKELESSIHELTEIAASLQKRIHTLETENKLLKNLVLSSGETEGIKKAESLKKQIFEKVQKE
# Variants of: B1
# Conditions: with met4_yeast MET4, P32389
row,effect of a mutation on the interaction,Variant
1,decreasing interaction,L386D;N425A;Q467A;L530D
